Experimental data as given in US20160201045A1, “Endo-xylanase and Coding Gene and Use Thereof” (SHANGHAI INSTITUTES FOR BIOLOGICAL SCIENCES CHINESE ACADEMY …, priority 2013, published 2016).

Key:
[1] = Standard enzymatic activity detection (DNS method) on birch xylan; assay type: biochemical; conditions: substrate 2% (w/w), pH7.0, 50, 10 minutes
Experimental: Enzymatic activity of the endo-1,4-β-xylanase was tested by a DNS method as follows:
10 g NaOH were weighed and dissolved in about 400 ml ddH2O. 10 g dinitrosalicylic acid, 2 g phenol, 0.5 g anhydrous sodium sulfite and 200 g potassium sodium tartrate tetrahydrate were weighed and dissolved in about 300 ml ddH2O. The two solutions were mixed, diluted to 1 liter and preserved in dark.
100 μl DNS were added into each of the above standard samples. The mixtures were subjected to boiled water bath for 5 minutes for developing color. Absorbance value at 540 nm was detected by a microplate reader. Standard sample 1 was a blank control. The absorbance value of the blank control was subtracted from that of each sample and then the standard curve was plotted.
In a 100 μl reaction system, birch xylan was added to a final concentration of 1% (w/w), and Na2HPO4/NaH2PO4 buffer (pH7.0) was added to a final concentration of 100 mM. A suitable amount of enzyme solution diluted by the abovementioned buffer was added to the reaction system for reaction at 50[…] for 10 minutes. 100 μl DNS were added to stop the reaction. For the control, 100 μl DNS were firstly added to the above reaction system before adding the enzyme solution. The reaction mixtures were subjected to a boiled water bath for 5 minutes to develop color. Absorbance value at 540 nm was detected by a microplate reader. After subtracting the absorbance value of the control from that of the sample, the enzymatic activity unit (U) was calculated based on the standard curve.
Definition of enzymatic activity unit (U): 1U refers to the amount of enzyme required for catalytically hydrolyzing xylan to produce 1 μmol xylose.
Definition of specific activity unit: enzymatic activity of 1 mg protein (U/mg).
Various substrates with a final concentration of 2% (w/w) were treated by a suitable amount of enzymes at pH7.0 and 50[…] for 10 minutes. Enzymatic activity was tested according to the above standard enzymatic activity detection steps. […] No detectable enzymatic activity was found for the other test substrates. […]

[2] = Thermal stability test of purified mutant proteins at 55° C. and 60° C.; assay type: biochemical
Experimental: Enzymatic activity was tested according to the above standard enzymatic activity detection steps (enzymatic activity was tested after reacting at pH7.0, 50° C. for 10 minutes). The enzyme solution which was not subjected to heat treatment was used as a control. Its specific activity tested under pH 7.0, 50° C. was used as a reference value and its relative activity was defined as 100%. The relative activity of the treatment group was a ratio between the relative activity value obtained after storing at different temperatures for different times (treatment conditions) and the reference value. […] After storing at these temperatures for 45 min, the enzymatic activity decreased to be less than 50% of the maximum activity.
Transformants were picked up by sterile toothpick to a LB liquid culture containing antibiotic and IPTG (in a final concentration of 1 mM) contained within the wells of a 96-well plate and cultured overnight at 37° C. and 200 rpm. Thallus was collected by centrifugation. 100 ul buffers having the optimum reaction pH were added to re-suspend the thallus. […] Enzymatic activity was detected according to the DNS method. […] Then the enzymatic activity was detected. The residual enzymatic activity of the treatment group was calculated as a percentage of the enzymatic activity of the treatment group in relative to that of the control group. […]

B1: Xyl7: endo-1,4-β-xylanase of 505 amino acids, SEQ ID NO:2, from termite gut metagenome, expressed in E. coli with His tag (protein)
chain: MKKLIALSFIAAFFAPLFAQGPTWTTSTIQAYNGYDYELWNQNNAGTVSMKLTGDNGSGASAVGGTFTATWSNTQNVLFRSGKKWGSSSNQNHTQIGNMSINFAATWSSTDNVKMLGVYGWAYFTSANVPTKQENGTNASFSNQIEYYIIQDRGSYNPASGGTNAKKYGSATIDGIAYDFYVCDRINQPMLTGNGNFKQFFSVPQSASAHRTSGTISVSQHFNKWHELGMKMDGPLYEVAMKVESYTGSGSSNGSATVTKNLLTIGGTTPTPSSNSGGTTSSSSRASSSSRASSSSNAAVQATTCKTPLITYPTSTVPSDPYTACFKYTDDKCYVCKVENEGEFEGNMNTCGSGWVWDGTQIDNNLRDGYWYQEVPCPAGSSSSRSSSSSVAVSSSSRSSSSSVAASSSSRSSSSSASVSSSSEETPIRVLHTIPSKFRVRSLNNGALQIESNADVVLYLYDTKGKMAQKIEAPTGSSIVKLSVPAGIYIVRNVQTKEKLRVMVR
modifications: His tag; Intestinal tract metagenome of termite
For B1, which “Specific Activity on birch xylan” value [1] is on record?
The value was 4700 ± 57 U/mg.

And the “half life at 60° C.” value [2]?
The value was “less than 10 minutes”.
